Target: T1, huZIP12-ECD-GST (human, UniProt Q504Y0 24-202)
T1 construct: also called hZIP12-ECD-GST; human ZIP12-ECD-GST; not shown: glutathione S-transferase (GST) tag
Experiment: SPR single cycle kinetics (Biacore): mAb captured on protein A, huZIP12-ECD-GST injected at 3.12-800 nM
Method: Single Cycle Kinetics (SCK) involves first capturing the mAb onto the protein A sensor surface and then sequentially injecting a series of concentrations of huZIP12-ECD-GST over the surface starting at the lowest concentration and ending with the highest concentration. The final concentration is followed by a dissociation phase where buffer only is passed across the surface followed by regeneration, where the remaining bound huZIP12-ECD-GST is removed from the surface by injection of a 10 mM Glycine pH 1.5 and 50 mM NaOH solution. The SCK is repeated for each monoclonal antibody providing duplicate data and the kinetics of each interaction is evaluated by the Biacore software.
Referring to FIG. 6, there are shown the kinetic parameters obtained for all antibody variants when screened with the 3.12 nM to 800 nM huZIP12-ECD-GST. […] Affinity.

T1 sequence (Q504Y0 24-202): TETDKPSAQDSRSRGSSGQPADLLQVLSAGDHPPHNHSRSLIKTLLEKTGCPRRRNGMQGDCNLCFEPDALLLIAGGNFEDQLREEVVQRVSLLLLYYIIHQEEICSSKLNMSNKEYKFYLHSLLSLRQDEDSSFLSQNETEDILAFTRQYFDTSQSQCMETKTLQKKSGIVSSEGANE

B1: 51B12_VH_L1 (antibody, V domains shown)
VH: QVQLVESGGGVVQPGRSLRLSCAASGFTFSDYGMHWVRQAPGKGLEWVAYISSGGTTIYYADTVKGRFTISRDNSKNTLYLQMNSLRAEDTAVYYCARWTNLYAMDYWGQGTTVTVSS
VL: DIVLTQSPDSLAVSLGERATINCRASKSVSTQGYSYMHWYQQKPGQPPKFLIYLASNLESGVPDRFSGSGSGTDFTLTISSLQAEDVAVYYCQHSREVPYTFGGGTKVEIKR
notes: Fc null human IgG1 / human kappa
Kd: 0.963 nM | koff: 2.83e-05 s⁻¹ | kon: 29300 M⁻¹ s⁻¹

B2: H2_G66Q_L1 (antibody, V domains shown)
VH: QVQLVESGGGVVQPGRSLRLSCAASGFTFSDYGMHWVRQAPGKGLEWVAYISSGGTTIYYADTVKQRFTISRDNSKNTLYLQMNSLRAEDTAVYYCARWTNLYAMDYWGQGTTVTVSS
VL: DIVLTQSPDSLAVSLGERATINCRASKSVSTQGYSYMHWYQQKPGQPPKFLIYLASNLESGVPDRFSGSGSGTDFTLTISSLQAEDVAVYYCQHSREVPYTFGGGTKVEIKR
notes: as for B1
Kd: 0.968 nM | koff: 3.34e-05 s⁻¹ | kon: 34600 M⁻¹ s⁻¹

B3: H3_M105P_L1 (antibody, V domains shown)
VH: QVQLVESGGGVVQPGRSLRLSCAASGFTFSDYGMHWVRQAPGKGLEWVAYISSGGTTIYYADTVKGRFTISRDNSKNTLYLQMNSLRAEDTAVYYCARWTNLYAPDYWGQGTTVTVSS
VL: DIVLTQSPDSLAVSLGERATINCRASKSVSTQGYSYMHWYQQKPGQPPKFLIYLASNLESGVPDRFSGSGSGTDFTLTISSLQAEDVAVYYCQHSREVPYTFGGGTKVEIKR
notes: as for B1
Kd: 1.55 nM | koff: 4.35e-05 s⁻¹ | kon: 28100 M⁻¹ s⁻¹

B4: H3_M105P_L2 (antibody, V domains shown)
VH: QVQLVESGGGVVQPGRSLRLSCAASGFTFSDYGMHWVRQAPGKGLEWVAYISSGGTTIYYADTVKGRFTISRDNSKNTLYLQMNSLRAEDTAVYYCARWTNLYAPDYWGQGTTVTVSS
VL: DIVLTQSPDSLAVSLGERATINCRASKSVSTSGYSYMHWYQQKPGQPPKFLIYLASNKESGVPDRFSGSGSGTDFTLTISSLQAEDVAVYYCQHSREVPYTFGGGTKVEIKR
notes: as for B1
Kd: 1.93 nM | koff: 4.14e-05 s⁻¹ | kon: 21500 M⁻¹ s⁻¹

B5: H2_Y60K_L2 (antibody, V domains shown)
VH: QVQLVESGGGVVQPGRSLRLSCAASGFTFSDYGMHWVRQAPGKGLEWVAYISSGGTTIYKADTVKGRFTISRDNSKNTLYLQMNSLRAEDTAVYYCARWTNLYAMDYWGQGTTVTVSS
VL: DIVLTQSPDSLAVSLGERATINCRASKSVSTSGYSYMHWYQQKPGQPPKFLIYLASNKESGVPDRFSGSGSGTDFTLTISSLQAEDVAVYYCQHSREVPYTFGGGTKVEIKR
notes: as for B1
Kd: 1.11 nM | koff: 4.04e-05 s⁻¹ | kon: 36500 M⁻¹ s⁻¹

B6: H2_K65P_L1 (antibody, V domains shown)
VH: QVQLVESGGGVVQPGRSLRLSCAASGFTFSDYGMHWVRQAPGKGLEWVAYISSGGTTIYYADTVPGRFTISRDNSKNTLYLQMNSLRAEDTAVYYCARWTNLYAMDYWGQGTTVTVSS
VL: DIVLTQSPDSLAVSLGERATINCRASKSVSTQGYSYMHWYQQKPGQPPKFLIYLASNLESGVPDRFSGSGSGTDFTLTISSLQAEDVAVYYCQHSREVPYTFGGGTKVEIKR
notes: as for B1
Kd: 1.07 nM | koff: 3.08e-05 s⁻¹ | kon: 28800 M⁻¹ s⁻¹

B7: H2_K65P_L2 (antibody, V domains shown)
VH: QVQLVESGGGVVQPGRSLRLSCAASGFTFSDYGMHWVRQAPGKGLEWVAYISSGGTTIYYADTVPGRFTISRDNSKNTLYLQMNSLRAEDTAVYYCARWTNLYAMDYWGQGTTVTVSS
VL: DIVLTQSPDSLAVSLGERATINCRASKSVSTSGYSYMHWYQQKPGQPPKFLIYLASNKESGVPDRFSGSGSGTDFTLTISSLQAEDVAVYYCQHSREVPYTFGGGTKVEIKR
notes: as for B1
Kd: 1.13 nM | koff: 2.62e-05 s⁻¹ | kon: 23200 M⁻¹ s⁻¹

B8: H2_T57H_L2 (antibody, V domains shown)
VH: QVQLVESGGGVVQPGRSLRLSCAASGFTFSDYGMHWVRQAPGKGLEWVAYISSGGTHIYYADTVKGRFTISRDNSKNTLYLQMNSLRAEDTAVYYCARWTNLYAMDYWGQGTTVTVSS
VL: DIVLTQSPDSLAVSLGERATINCRASKSVSTSGYSYMHWYQQKPGQPPKFLIYLASNKESGVPDRFSGSGSGTDFTLTISSLQAEDVAVYYCQHSREVPYTFGGGTKVEIKR
notes: as for B1
Kd: 0.98 nM | koff: 3.78e-05 s⁻¹ | kon: 38600 M⁻¹ s⁻¹

B9: H2_T56H_L2 (antibody, V domains shown)
VH: QVQLVESGGGVVQPGRSLRLSCAASGFTFSDYGMHWVRQAPGKGLEWVAYISSGGHTIYYADTVKGRFTISRDNSKNTLYLQMNSLRAEDTAVYYCARWTNLYAMDYWGQGTTVTVSS
VL: DIVLTQSPDSLAVSLGERATINCRASKSVSTSGYSYMHWYQQKPGQPPKFLIYLASNKESGVPDRFSGSGSGTDFTLTISSLQAEDVAVYYCQHSREVPYTFGGGTKVEIKR
notes: as for B1
Kd: 1.61 nM | koff: 3.74e-05 s⁻¹ | kon: 23200 M⁻¹ s⁻¹

B10: H2_K65P_VL-par (antibody, V domains shown)
VH: QVQLVESGGGVVQPGRSLRLSCAASGFTFSDYGMHWVRQAPGKGLEWVAYISSGGTTIYYADTVPGRFTISRDNSKNTLYLQMNSLRAEDTAVYYCARWTNLYAMDYWGQGTTVTVSS
VL: DIVLTQSPDSLAVSLGERATINCRASKSVSTSGYSYMHWYQQKPGQPPKFLIYLASNLESGVPDRFSGSGSGTDFTLTISSLQAEDVAVYYCQHSREVPYTFGGGTKVEIKR
notes: as for B1
Kd: 1.08 nM | koff: 2.92e-05 s⁻¹ | kon: 27000 M⁻¹ s⁻¹

B11: H2_T56H_L1 (antibody, V domains shown)
VH: QVQLVESGGGVVQPGRSLRLSCAASGFTFSDYGMHWVRQAPGKGLEWVAYISSGGHTIYYADTVKGRFTISRDNSKNTLYLQMNSLRAEDTAVYYCARWTNLYAMDYWGQGTTVTVSS
VL: DIVLTQSPDSLAVSLGERATINCRASKSVSTQGYSYMHWYQQKPGQPPKFLIYLASNLESGVPDRFSGSGSGTDFTLTISSLQAEDVAVYYCQHSREVPYTFGGGTKVEIKR
notes: as for B1
Kd: 1.3 nM | koff: 3.45e-05 s⁻¹ | kon: 26400 M⁻¹ s⁻¹

B12: 51B12_VH_L2 (antibody, V domains shown)
VH: QVQLVESGGGVVQPGRSLRLSCAASGFTFSDYGMHWVRQAPGKGLEWVAYISSGGTTIYYADTVKGRFTISRDNSKNTLYLQMNSLRAEDTAVYYCARWTNLYAMDYWGQGTTVTVSS
VL: DIVLTQSPDSLAVSLGERATINCRASKSVSTSGYSYMHWYQQKPGQPPKFLIYLASNKESGVPDRFSGSGSGTDFTLTISSLQAEDVAVYYCQHSREVPYTFGGGTKVEIKR
notes: as for B1
Kd: 1.12 nM | koff: 2.86e-05 s⁻¹ | kon: 25600 M⁻¹ s⁻¹

B13: H2_T63Y_L2 (antibody, V domains shown)
VH: QVQLVESGGGVVQPGRSLRLSCAASGFTFSDYGMHWVRQAPGKGLEWVAYISSGGTTIYYADYVKGRFTISRDNSKNTLYLQMNSLRAEDTAVYYCARWTNLYAMDYWGQGTTVTVSS
VL: DIVLTQSPDSLAVSLGERATINCRASKSVSTSGYSYMHWYQQKPGQPPKFLIYLASNKESGVPDRFSGSGSGTDFTLTISSLQAEDVAVYYCQHSREVPYTFGGGTKVEIKR
notes: as for B1
Kd: 1.15 nM | koff: 3.06e-05 s⁻¹ | kon: 26700 M⁻¹ s⁻¹

B14: H3_M105P_VL-par (antibody, V domains shown)
VH: QVQLVESGGGVVQPGRSLRLSCAASGFTFSDYGMHWVRQAPGKGLEWVAYISSGGTTIYYADTVKGRFTISRDNSKNTLYLQMNSLRAEDTAVYYCARWTNLYAPDYWGQGTTVTVSS
VL: DIVLTQSPDSLAVSLGERATINCRASKSVSTSGYSYMHWYQQKPGQPPKFLIYLASNLESGVPDRFSGSGSGTDFTLTISSLQAEDVAVYYCQHSREVPYTFGGGTKVEIKR
notes: as for B1
Kd: 1.63 nM | koff: 4.03e-05 s⁻¹ | kon: 24700 M⁻¹ s⁻¹

— patent US20260109761A1 (IP2IPO INNOVATIONS, published 2026)
